The record followed here is patent EP3108897A1 (F. Hoffmann-La Roche AG, dated 2016).

For assay [1], the target named is human wildtype CSF-1R (full-length) (human, UniProt P07333 20-972). Kind of assay: cell-based or functional assay.
Assay [2] addresses human mutant CSF-1R L301S Y969F (full-length) (human) (UniProt P07333). Kind of assay: cell-based or functional assay.

On to “Anti CSF-1R SC 2-4A5 (Santa Cruz Biotechnology, US) (antibody)”, for which, in assay [1], the IC50 CSF-1R Phosphorylation (phospho/total CSF-1R ELISA on lysates of NIH3T3-CSF-1R cells stimulated with hu CSF-1) amounted to 1010 ng/mL and the wtCSF-1R IC30 (CellTiterGlo viability of NIH3T3-wtCSF-1R spheroids, 3 days) was determined as 16.6 µg/mL. Also, the Mutant CSF-1R IC30 (CellTiterGlo viability of NIH3T3-mutant CSF-1R spheroids, 3 days) in assay [2] amounted to 2.56 µg/mL.
With “goat polyclonal anti-CSF-1R antibody ab10676 (abcam)”, the wtCSF-1R IC30 (CellTiterGlo viability of NIH3T3-wtCSF-1R spheroids, 3 days) in assay [1] turned out to be 14.2 µg/mL. In assay [2], this substance had a % inhibition of cell viability at 20 µg/ml (NIH3T3-mutant CSF-1R spheroids) of 0% and a Mutant CSF-1R IC30 (CellTiterGlo viability of NIH3T3-mutant CSF-1R spheroids, 3 days) of more than 20 µg/mL.
